Results on one molecule are retold here after patent publication US20180148504A1.

Assay [1] deals with recombinant purified FRα (ECL assay calibrator) (human) (UniProt P15328). Briefly: ECL sandwich capture 19D2.G9 / detection 30G6.G6.G4.E9; calibrator incubated overnight with 10 µg/mL MORAb-003.
The target is the same in assay [2]. Briefly: ECL sandwich capture 19D4.B7 / detection 1D2.G8.G10; calibrator incubated overnight with 10 µg/mL MORAb-003.
Assay [3] concerns the target endogenous folate receptor alpha in human serum and plasma samples (human) (UniProt P15328). Briefly: ECL sandwich capture 19D4.B7 / detection 24H8.D3; serum incubated overnight with 10 µg/mL MORAb-003.
For assay [4], the target named is recombinant purified FRα (ECL assay calibrator) (human) (UniProt P15328). Briefly: ECL sandwich capture 30G6.G6.G4.E9 / detection 2F11.F8; calibrator incubated overnight with 10 µg/mL MORAb-003.
Assay [5] shares this target. Briefly: ECL sandwich capture 19D4.B7 / detection 1C6.E12.G8; calibrator incubated overnight with 10 µg/mL MORAb-003.
Assay [6] shares this target. In words: ECL sandwich capture 19D4.B7 / detection 28H12.G9; calibrator incubated overnight with 10 µg/mL MORAb-003.
Assay [7] has the same target. Briefly: ECL sandwich capture 6A2.G7 / detection 24H8.F3; calibrator incubated overnight with 10 µg/mL MORAb-003.
For assay [8] the target is unchanged. In words: ECL sandwich capture 2F11.F8 / detection 19D4.B7; calibrator incubated overnight with 10 µg/mL MORAb-003.
Assay [9] shares this target. In words: ECL sandwich competition; competitors 9F3 capture / 24F12 detection; FRα standard STD02; MORAb-003 50 µg/mL.
For assay [10], the target named is endogenous folate receptor alpha in human serum and plasma samples (human) (UniProt P15328). Briefly: ECL sandwich competition; competitors 24H8.D3 capture / 19D4.B7 detection; serum samples; MORAb-003 100 µg/mL.
Sequence of endogenous folate receptor alpha in human serum and plasma samples (human) (P15328 25-234 limits assumed, form in doubt): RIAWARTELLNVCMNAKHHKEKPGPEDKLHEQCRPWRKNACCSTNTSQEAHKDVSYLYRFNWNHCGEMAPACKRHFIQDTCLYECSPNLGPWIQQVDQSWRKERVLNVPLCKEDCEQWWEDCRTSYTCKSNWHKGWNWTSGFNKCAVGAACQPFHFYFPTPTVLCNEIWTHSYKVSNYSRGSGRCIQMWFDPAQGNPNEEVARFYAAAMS
For assay [11], the target named is recombinant purified FRα (ECL assay calibrator) (human) (UniProt P15328). Briefly: ECL sandwich capture 24H8.D3 / detection 30G6.G6.G4.E9; calibrator incubated overnight with 10 µg/mL MORAb-003.
Assay [12] shares this target. Briefly: ECL sandwich competition; competitors 9F3 capture / 24F12 detection; FRα standard STD03; MORAb-003 10 µg/mL.
For assay [13] the target is unchanged. Briefly: ECL sandwich capture 19D2.G9 / detection 6A2.G7; calibrator incubated overnight with 10 µg/mL MORAb-003.
For assay [14] the target is unchanged. In words: ECL sandwich capture 24H8.F3 / detection 19D4.B7; calibrator incubated overnight with 10 µg/mL MORAb-003.
Assay [15] shares this target. Briefly: ECL sandwich competition; competitors 9F3 capture / 24F12 detection; FRα standard STD05; MORAb-003 50 µg/mL.
Assay [16] has the same target. Briefly: ECL sandwich capture 24H8.F3 / detection 6A2.G7; calibrator incubated overnight with 10 µg/mL MORAb-003.
The target in assay [17] is endogenous folate receptor alpha in human serum and plasma samples (human) (UniProt P15328). Briefly: ECL sandwich capture 6A2.G7 / detection 6A2.G7; serum incubated overnight with 10 µg/mL MORAb-003; no % sign in this cell.
Assay [18] deals with recombinant purified FRα (ECL assay calibrator) (human) (UniProt P15328). Briefly: ECL sandwich capture 1A8.G11.E7 / detection 19D4.B7; calibrator incubated overnight with 10 µg/mL MORAb-003.
For assay [19], the target named is endogenous folate receptor alpha in human serum and plasma samples (human) (UniProt P15328). Briefly: ECL sandwich capture 1D2.G8.G10 / detection 19D4.B7; serum incubated overnight with 10 µg/mL MORAb-003.
Assay [20] shares this target. In words: ECL sandwich capture 19D4.B7 / detection 1A8.G11.E7; serum incubated overnight with 10 µg/mL MORAb-003.
The target of assay [21] is recombinant purified FRα (ECL assay calibrator) (human) (UniProt P15328). In words: ECL sandwich capture 30G6.G6.G4.E9 / detection 1D2.G8.G10; calibrator incubated overnight with 10 µg/mL MORAb-003.
Assay [22] has the same target. In words: ECL sandwich capture 24H8.D3 / detection 19D4.B7; calibrator incubated overnight with 10 µg/mL MORAb-003.
For assay [23] the target is unchanged. In words: ECL sandwich competition; competitors 9F3 capture / 24F12 detection; FRα standard STD08; MORAb-003 10 µg/mL.
Assay [24] has the same target. Briefly: ECL sandwich competition; competitors 9F3 capture / 24F12 detection; FRα standard STD02; MORAb-003 10 µg/mL.

Sequence of recombinant purified FRα (ECL assay calibrator) (human) (P15328 25-234 limits assumed): as the sequence (P15328 25-234 limits assumed, form in doubt) above

B1: farletuzumab (MORAb-003) (antibody, part only; not given: Constant regions, V domains shown, not shown: another chain or arm of the molecule)
VH: EVQLVESGGGVVQPGRSLRLSCSASGFTFSGYGLSWVRQAPGKGLEWVAMISSGGSYTYYADSVKGRFAISRDNAKNTLFLQMDSLRPEDTGVYFCARHGDDPAWFAYWGQGTPVTVSS
VL: DIQLTQSPSSLSASVGDRVTITCSVSSSISSNNLHWYQQKPGKAPKPWIYGTSNLASGVPSRFSGSGSGTDYTFTISSLQPEDIATYYCQQWSSYPYMYTFGQGTKVEIK
B1: the Drug Suppression of Cal Signal at 500 pg/mL in [1] is -4%; in assay [2] it was 2%; in [4] it was -1%; in assay [5] it was -18%; in assay [6], -21%; in [7] it was -5%. Also, the Drug Suppression of Cal Signal at 500 pg/mL is -2% in assay [8]; 0% in assay [11]; -4% in [13]; 9% in assay [14]; 7% in assay [16]; -16% in assay [18]. Further, the Drug Suppression of Cal Signal at 500 pg/mL was 8% in [21] and -3% in assay [22]. The Drug suppression of serum in [3] is 4.49%; in [17] it was -45.8; in assay [19] it was 84.6%; in [20] it was -4.92%. Also, the % of signal without MORAb-003 (MORAb-003 interference) stood at 49% in [9]; 61% in [12]; 75% in assay [15]; 121% in assay [23]; 70% in assay [24]. The same molecule returned a percent inhibition (median, serum) in assay [10] of 3%.
